Results: paper PMC10397247
Values belong to the binder of their own block, whether it stands above or below them.

Assays:
Test in all cases: two-hybrid library CCmax;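 further: natural log of median RNA to DNA barcode read ratio; higher means stronger binding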
AP3-AA = biological target: T1, AP3-AA; conditions: mean of both orientations
T1 chain: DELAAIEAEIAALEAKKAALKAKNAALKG

P3-AA = biological target: T2, P3-AA; conditions: mean of both orientations
T2 chain: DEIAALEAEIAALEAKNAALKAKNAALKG

P4-AA = biological target: T3, P4-AA; conditions: mean of both orientations
T3 chain: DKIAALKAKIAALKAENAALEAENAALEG

P7-AA = biological target: T4, P7-AA; conditions: mean of both orientations
T4 chain: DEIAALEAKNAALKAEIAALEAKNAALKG

P1-AA = biological target: T5, P1-AA; conditions: mean of both orientations
T5 chain: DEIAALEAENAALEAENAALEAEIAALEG

AP6-AA = biological target: T6, AP6-AA; conditions: mean of both orientations
T6 chain: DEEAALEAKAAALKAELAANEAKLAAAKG

AP8-AA = biological target: T7, AP8-AA; conditions: mean of both orientations
T7 chain: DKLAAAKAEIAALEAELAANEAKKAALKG

P10-AA = biological target: T8, P10-AA; conditions: mean of both orientations
T8 chain: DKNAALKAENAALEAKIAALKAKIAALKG

GCN2_T = biological target: GCN2_T
AP4-AA = biological target: T9, AP4-AA; conditions: mean of both orientations
T9 chain: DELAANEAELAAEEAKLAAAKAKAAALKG

AP7-AA = biological target: T10, AP7-AA
T10 chain: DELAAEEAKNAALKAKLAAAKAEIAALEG

P8-AA = biological target: T11, P8-AA; conditions: mean of both orientations
T11 chain: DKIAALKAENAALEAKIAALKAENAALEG

P9-AA = biological target: T12, P9-AA; conditions: mean of both orientations
T12 chain: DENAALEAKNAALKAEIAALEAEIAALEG

AP2-AA = biological target: T13, AP2-AA
T13 chain: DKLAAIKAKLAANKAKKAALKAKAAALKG

AP5-AA = biological target: T14, AP5-AA; conditions: mean of both orientations
T14 chain: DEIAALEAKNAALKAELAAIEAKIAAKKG

P2-AA = biological target: T15, P2-AA; conditions: mean of both orientations
T15 chain: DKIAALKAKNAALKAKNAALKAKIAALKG

P12-AA = biological target: T16, P12-AA; conditions: mean of both orientations
T16 chain: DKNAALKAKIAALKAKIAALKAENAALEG

P11-AA = biological target: T17, P11-AA; conditions: mean of both orientations
T17 chain: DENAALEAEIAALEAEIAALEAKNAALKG

APC4264-AA = biological target: T18, APC4264-AA; conditions: mean of both orientations
T18 chain: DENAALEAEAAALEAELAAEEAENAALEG

APC4436-AA = biological target: T19, APC4436-AA; conditions: mean of both orientations
T19 chain: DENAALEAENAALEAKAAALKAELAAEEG

APC3645-AA = biological target: T20, APC3645-AA; conditions: mean of both orientations
T20 chain: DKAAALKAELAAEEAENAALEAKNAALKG

APC8910-AA = biological target: T21, APC8910-AA; conditions: mean of both orientations
T21 chain: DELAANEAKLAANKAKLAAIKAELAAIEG

APC2237-AA = biological target: T22, APC2237-AA; conditions: mean of both orientations
T22 chain: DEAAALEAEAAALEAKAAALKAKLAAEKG

APC1434-AA = biological target: T23, APC1434-AA; conditions: mean of both orientations
T23 chain: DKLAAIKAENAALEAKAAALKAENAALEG

4H733-AA = biological target: T24, 4H733-AA
T24 chain: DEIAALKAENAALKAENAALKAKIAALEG

APC5383-AA = biological target: T25, APC5383-AA; conditions: mean of both orientations
T25 chain: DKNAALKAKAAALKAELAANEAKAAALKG

APC1015-AA = biological target: T26, APC1015-AA; conditions: mean of both orientations
T26 chain: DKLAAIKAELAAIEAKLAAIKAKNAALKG

4H807-AA = biological target: T27, 4H807-AA; conditions: mean of both orientations
T27 chain: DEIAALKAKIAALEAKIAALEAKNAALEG

APC6108-AA = biological target: T28, APC6108-AA; conditions: mean of both orientations
T28 chain: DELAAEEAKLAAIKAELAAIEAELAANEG

APC9319-AA = biological target: T29, APC9319-AA; conditions: mean of both orientations
T29 chain: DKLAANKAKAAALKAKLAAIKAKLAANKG

APC8191-AA = biological target: T30, APC8191-AA; conditions: mean of both orientations
T30 chain: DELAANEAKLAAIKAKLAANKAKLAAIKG

APC4011-AA = biological target: T31, APC4011-AA; conditions: mean of both orientations
T31 chain: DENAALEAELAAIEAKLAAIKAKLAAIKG

APC2405-AA = biological target: T32, APC2405-AA; conditions: mean of both orientations
T32 chain: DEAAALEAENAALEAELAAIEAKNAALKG

APC7099-AA = biological target: T33, APC7099-AA; conditions: mean of both orientations
T33 chain: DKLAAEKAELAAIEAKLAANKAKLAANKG

APC9096-AA = biological target: T34, APC9096-AA; conditions: mean of both orientations
T34 chain: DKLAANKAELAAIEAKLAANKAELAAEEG

APC232-AA = biological target: T35, APC232-AA; conditions: mean of both orientations
T35 chain: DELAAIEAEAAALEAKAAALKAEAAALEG

interaction score (AP3-AA): -2.09
interaction score (P3-AA): -1.95
interaction score (P4-AA): -1.83
interaction score (P7-AA): -1.75
interaction score (P1-AA): 0.511
interaction score (AP6-AA): -1.74
interaction score (AP8-AA): -1.71
interaction score (P10-AA): -1.76
interaction score (GCN2_T): -1.81
interaction score (AP4-AA): -1.62
interaction score (AP7-AA): -1.6
interaction score (P8-AA): -1.86
interaction score (P9-AA): -1.65
interaction score (AP2-AA): -2.11
interaction score (AP5-AA): -1.24
interaction score (P2-AA): -1.94
interaction score (P12-AA): -1.59
interaction score (P11-AA): -0.526
B1: AP2-AA (peptide)
chain: DKLAAIKAKLAANKAKKAALKAKAAALKG

interaction score (APC4264-AA): -1.83
interaction score (APC4436-AA): -1.66
interaction score (APC3645-AA): -1.25
interaction score (APC8910-AA): -1.37
interaction score (APC2237-AA): -1.41
interaction score (APC1434-AA): -1.75
interaction score (4H733-AA): 2.16
interaction score (APC5383-AA): -2.26
interaction score (APC1015-AA): -1.46
interaction score (4H807-AA): -1.53
interaction score (APC6108-AA): -1.39
interaction score (APC9319-AA): -2.02
interaction score (APC8191-AA): -1.19
interaction score (APC4011-AA): -1.54
interaction score (APC2405-AA): -1.28
interaction score (APC7099-AA): -1.67
interaction score (APC9096-AA): -1.46
interaction score (APC232-AA): -1.82
B2: 4H733-AA (peptide)
chain: DEIAALKAENAALKAENAALKAKIAALEG
